Data reported in the supplement of paper PMC7125110.
± gives the standard error. This sample holds only a part of the variants without activity.

B1: glmS ribozyme (parent)
chain: AUAAAAGCGCCAGAACUACAGAAAUGUAGUUGACGAGGAGGAGGUUUAUCGAAUUUUCGGCGGAUGCCUCCAAA

Tests used:
Details in all cases: with glucosamine-6-phosphate
glucosamine-6-phosphate [1] = variants of: B1; assay: self-cleavage kobs at 160 uM GlcN6P; higher = faster cleavage; RNA array
Method in brief: (§1)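 E. coli RNA polymerase transcribed barcoded ribozyme variants in situ on sequenced MiSeq chips, which were tracked via a hybridised Cy3 probe at 37 °C. Tiles were imaged over ~14 h after glucosamine-6-phosphate (40 μM to 10 mM) in HEPES/KCl/Mg(OAc)2 buffer was flowed in. Normalised per-tile medians were fit to one- or two-exponential decays for kobs, and kcat and KM came from weighted Michaelis–Menten fits.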

glucosamine-6-phosphate [2] = variants of: B1; assay: self-cleavage kobs at 2500 uM GlcN6P; higher = faster cleavage; RNA array
Method in brief: as §1

glucosamine-6-phosphate [3] = variants of: B1; assay: self-cleavage kobs at 640 uM GlcN6P; higher = faster cleavage; RNA array
Method in brief: as §1

glucosamine-6-phosphate [4] = variants of: B1; assay: self-cleavage kobs at 10000 uM GlcN6P; higher = faster cleavage; RNA array
Method in brief: as §1

| Variant | self-cleavage kobs at 160 uM GlcN6P (glucosamine-6-phosphate [1]) [s⁻¹] | self-cleavage kobs at 2500 uM GlcN6P (glucosamine-6-phosphate [2]) [s⁻¹] | self-cleavage kobs at 640 uM GlcN6P (glucosamine-6-phosphate [3]) [s⁻¹] | self-cleavage kobs at 10000 uM GlcN6P (glucosamine-6-phosphate [4]) [s⁻¹] |
| --- | --- | --- | --- | --- |
| G37C G44A U49A C68U | < 1e-05 | < 1e-05 |  |  |
| A15U A36C G41U C71G | < 1e-05 |  | < 1e-05 |  |
| A33U A48G | < 1e-05 | < 1e-05 | < 1e-05 |  |
| U31C G62A | < 1e-05 | < 1e-05 | < 1e-05 | < 1e-05 |
| G29C G37C G41C | < 1e-05 | < 1e-05 |  |  |
| C11A A42G G63A | < 1e-05 |  | < 1e-05 |  |
| U30C U54A C68A | 7.12e-05 ± 2.1e-05 | 5.33e-05 ± 2.5e-05 |  |  |
| A42U A53G A64C | < 1e-05 |  | < 1e-05 |  |
| G9U C19A | < 1e-05 |  |  |  |
| G38A G44A C50U | < 1e-05 |  | < 1e-05 |  |
| A14C G40U G43C C50U | < 1e-05 | < 1e-05 |  |  |
| C10G A42G G44C A53G G60U | < 1e-05 |  | < 1e-05 |  |
| C16G G29U G37A | 5.27e-05 ± 1.6e-05 | 0.000382 ± 9.7e-05 | 0.000272 ± 7.4e-05 |  |
| G66A C67A C70U | 0.000193 ± 4.7e-05 | 0.000861 ± 0.0002 | 0.000467 ± 0.0001 |  |
| G32U G51U G66A | < 1e-05 |  | < 1e-05 |  |
| A39C G51A C61A | < 1e-05 | < 1e-05 |  |  |
| G35A G63C | < 1e-05 | < 1e-05 | < 1e-05 |  |
| A53G G63U | < 1e-05 | < 1e-05 | < 1e-05 |  |
| C16U G38U U54C G66U C71A | < 1e-05 |  | < 1e-05 |  |
| U30A G59U C61U | < 1e-05 |  | < 1e-05 |  |
| G29A A42G U45A | 6.61e-05 ± 3e-05 | 0.00402 ± 0.0015 | 0.00154 ± 0.00038 |  |
| C8A A36U C50G A52U | < 1e-05 | < 1e-05 | < 1e-05 |  |
| U57G C58A G63U | < 1e-05 |  |  |  |
| C8A G60U U69A | < 1e-05 |  | < 1e-05 |  |
| A6C C10G A36C U49C A53U A64U | < 1e-05 |  |  |  |
| A14G A33C C70A | < 1e-05 |  |  |  |

| Variant | self-cleavage kobs at 160 uM GlcN6P (glucosamine-6-phosphate [1]) [s⁻¹] | self-cleavage kobs at 2500 uM GlcN6P (glucosamine-6-phosphate [2]) [s⁻¹] | self-cleavage kobs at 640 uM GlcN6P (glucosamine-6-phosphate [3]) [s⁻¹] | self-cleavage kobs at 10000 uM GlcN6P (glucosamine-6-phosphate [4]) [s⁻¹] |
| --- | --- | --- | --- | --- |
| U46G A53U U65G | 4.57e-05 ± 1.6e-05 | 0.000976 ± 0.00018 | 0.000379 ± 9.9e-05 |  |
| A6U A12C A36C G38C C71U | < 1e-05 | < 1e-05 | < 1e-05 |  |
| C34A C67G C68A | 6.53e-05 ± 1.9e-05 | 0.000284 ± 8.7e-05 | 6.33e-05 ± 2e-05 |  |
| U31G A52C | < 1e-05 |  | < 1e-05 |  |
| A52G C67U C71G | 4.58e-05 ± 2.3e-05 | 0.000162 ± 5.9e-05 | 7.65e-05 ± 1.9e-05 |  |
| A12G G40U A53G C67U | < 1e-05 |  | < 1e-05 |  |
| A12U G29A C68U | 0.000209 ± 5.1e-05 | 0.0017 ± 0.0004 | 0.000265 ± 6.4e-05 | 0.00275 ± 0.0012 |
| G37U C50U C58A G60C A64C | < 1e-05 | < 1e-05 | < 1e-05 |  |
| G41A C67U | < 1e-05 | < 1e-05 | < 1e-05 |  |
| C10U C16U G38C | < 1e-05 | < 1e-05 | < 1e-05 |  |
| G38U C58U C68A | 7.38e-05 ± 3.4e-05 | 6.21e-05 ± 3.1e-05 | 0.00022 ± 8.3e-05 |  |
| A6G G41A A42U A64U | < 1e-05 | < 1e-05 |  |  |
| A33U G43C | < 1e-05 | < 1e-05 | < 1e-05 |  |
| G38U G44U C50A A64U | < 1e-05 |  |  |  |
| C8U A12C A42U A53U C61A | < 1e-05 | < 1e-05 | < 1e-05 |  |
| G13A G41U U49A G51C | < 1e-05 |  |  |  |
| C8G U57G | < 1e-05 | < 1e-05 | < 1e-05 |  |
| G9U C10U C67G | < 1e-05 | < 1e-05 | < 1e-05 |  |
| G7U C19U G38U | < 1e-05 | < 1e-05 |  |  |
| C34A U45A C70U | < 1e-05 | < 1e-05 | < 1e-05 |  |
| G13U G43U | < 1e-05 |  | < 1e-05 | < 1e-05 |
| G38C U49G | < 1e-05 | < 1e-05 | < 1e-05 |  |
| G7C G32C G43U G60U | < 1e-05 | < 1e-05 |  | < 1e-05 |
| A15C G38C C70G | < 1e-05 |  |  |  |
| U30A G35C C50G C68A C71U | 8.36e-05 ± 2.8e-05 | 0.000671 ± 0.00025 | 0.00197 ± 0.00057 |  |
